Experimental data reported in publication PMC10785756, “Hydrolysis of Antimicrobial Peptides by Extracellular Peptidases in Wastewater” (Environmental Science & Technology, 2023).

Key:
[1] = AMP incubation with autoclaved wastewater extracts (abiotic removal / adsorption control); format: physicochemical; details: wastewater extracts (pool I influent)
Experimental: We thawed enzyme extracts and transferred 1.35 mL to 2 mL protein LoBind Eppendorf tubes. For autoclaved controls, extract aliquots of 1.5 mL were autoclaved for 20 min at 121 °C and 2 bar (Wolf Sanoclav LaS-MCS-J) and 1.35 mL of the autoclaved extracts were transferred into 2 mL protein LoBind Eppendorf tubes. We then spiked 150 μL of the AMP stock solution containing all AMPs at 10 μg/mL to the enzyme extracts or 1.35 mL of ultrapure water. […] Triplicate incubations were conducted for the autoclaved and active extracts with spiked AMP. After AMP spiking, we mixed the solutions by inverting the vials and incubating them at 20 °C under horizontal shaking at 300 rpm. […]
We analyzed AMPs using UHPLC (Thermo Scientific Dionex Ultimate 3000) equipped with a Waters XSelect PREMIER CSH C18 column (article number: 186009870) coupled to HRMS (Thermo QExactive). […]
In parallel to AMP incubations with active enzyme extracts, we conducted AMP incubations with autoclaved enzyme extracts to control for abiotic removal (e.g., due to adsorption to components in wastewater extracts). Autoclaving decreased the peptidase activity, as measured with the above-mentioned fluorogenic probe-based assay, of wastewater extracts to <3% of their original activity. […] We determined the AMP concentrations in unspiked enzyme extracts, which were below the limit of quantification (LOQ) for all AMPs in all WWTPs.

[2] = system: extracellular wastewater peptidases (pool I extracts from WWTP influents); test: AMP incubation with active dissolved extracellular wastewater extracts (pool I) from WWTP influents; format: in vitro ADME
Experimental: We took samples from four municipal WWTPs in Austria ([…], and D). […] Where existing, we sampled the following five stages along the wastewater treatment process: influent, primary clarification tank, high-load and low-load aeration tanks, and effluent. […] We took 2 × 500 mL grab samples at each stage using a plastic beaker. We transferred the samples into 500 mL glass bottles leaving roughly one-third of the bottle empty, transported them to the lab, and pooled duplicate samples for further processing. Enzyme extraction started within 1 h after sampling. For total suspended solid (TSS) determination, we filtered 20 mL of each sample through a preweighed, dry GF/F Whatman glass microfiber filter (Sigma-Aldrich, WHA1825047) using a vacuum filtration system, dried the filters at 105 °C for 2 h, and determined the TSS contents from the weight difference. […] Otherwise, the extraction process was the same for pools I and II. All extractions were performed in triplicate, and extracts were kept on ice until further use. […] Triplicate incubations were conducted for the autoclaved and active extracts with spiked AMP. […] This protocol step was conducted according to Luther et al.[9] We then transferred the supernatant into a fresh 1.5 mL protein LoBind Eppendorf tube and dried it in a SpeedVac vacuum concentrator (30 °C for approximately 6 h). […] We transferred the solution into QuanRecovery HPLC vials (Waters, 186009186) and stored the samples at -20 °C until analysis. For method development, selected (and indicated) samples were sonicated (Sonorex Super RK 106, Bandelin, max 480 W) for 5 min at different steps of the sample preparation process. We analyzed AMPs using UHPLC (Thermo Scientific Dionex Ultimate 3000) equipped with a Waters XSelect PREMIER CSH C18 column (article number: 186009870) coupled to HRMS (Thermo QExactive). We injected 10 μL of each sample and applied a flow rate of 0.4 mL/min using the following eluent gradient (A: ultrapure water, B: […] Detection parameters were chosen as follows: […] We used Skyline (version 20.2.0.343) to analyze the raw data. […] For products, the peak area had to either increase throughout the incubation experiment or first increase and then decrease.

[3] = system: extracellular wastewater peptidases (pool I extracts from WWTP influents); test: Absolute quantification of transformation products (TPs) formed during AMP incubation with wastewater extracts; format: in vitro ADME
Experimental: We thawed enzyme extracts and transferred 1.35 mL to 2 mL protein LoBind Eppendorf tubes. For autoclaved controls, extract aliquots of 1.5 mL were autoclaved for 20 min at 121 °C and 2 bar (Wolf Sanoclav LaS-MCS-J) and 1.35 mL of the autoclaved extracts were transferred into 2 mL protein LoBind Eppendorf tubes. We then spiked 150 μL of the AMP stock solution containing all AMPs at 10 μg/mL to the enzyme extracts or 1.35 mL of ultrapure water. […] Triplicate incubations were conducted for the autoclaved and active extracts with spiked AMP. After AMP spiking, we mixed the solutions by inverting the vials and incubating them at 20 °C under horizontal shaking at 300 rpm. To stop enzymatic reactions at pre-defined sampling time points (i.e., 2 min, 30 min, 1 h, 2 h, and 4 h), we transferred 150 μL of the incubation solution to 450 μL of acetonitrile containing 1% (v/v) formic acid in 1.5 mL protein LoBind Eppendorf tubes, mixed the resulting solution by inverting the tube and by horizontally shaking it at 300 rpm for 2 min at 20 °C, and centrifuged samples at 16,000g for 1 min. This protocol step was conducted according to Luther et al.[9] We then transferred the supernatant into a fresh 1.5 mL protein LoBind Eppendorf tube and dried it in a SpeedVac vacuum concentrator (30 °C for approximately 6 h). To resolubilize AMPs, we added 150 μL of water containing 5% (v/v) acetonitrile and 0.1% (v/v) formic acid, vortexed the samples, and centrifuged them for 10 s at 1000g at room temperature. We transferred the solution into QuanRecovery HPLC vials (Waters, 186009186) and stored the samples at −20 °C until analysis. For method development, selected (and indicated) samples were sonicated (Sonorex Super RK 106, Bandelin, max 480 W) for 5 min at different steps of the sample preparation process.
We analyzed AMPs using UHPLC (Thermo Scientific Dionex Ultimate 3000) equipped with a Waters XSelect PREMIER CSH C18 column (article number: 186009870) coupled to HRMS (Thermo QExactive). […] We used Skyline (version 20.2.0.343) to analyze the raw data. Criteria for parent peptides and hydrolysis product identification were set as described before:[31]m/z deviation <2 ppm, MS/MS fragments with m/z deviation <5 ppm, and reasonable chromatographic peak shape. For products, the peak area had to either increase throughout the incubation experiment or first increase and then decrease.
To learn about the enzymatic hydrolysis pathways of AMPs that we found to be rapidly biotransformed by enzymes in wastewater extracts, we predicted all products of single peptide bond hydrolysis reactions and screened our data-dependent high-resolution mass spectrometry data for experimental evidence in support of the predicted hydrolysis products. These analyses were conducted for the AMPs with the highest biotransformation extents (i.e., >0.5 in at least two WWTPs), namely, cecropin P1, omiganan, and R8. The following requirements for transformation products (TPs) were defined: at least three amino acids, peak area either increases during the incubation experiment or first increases and then decreases, peak area exceeds that in AMP-free enzyme extract by >5-fold and that in spiked autoclaved extracts by >6-fold, and mass deviation <2 ppm from the calculated exact mass. Mass lists, mass deviations, and retention times of all TPs can be found in Tables S6–S11. We further predicted TPs formed via exocleavage mechanisms (i.e., cleavage of one or two terminal amino acids simultaneously from the C- and N- terminus of the peptide) and screened for these TPs in the HRMS data.
For cecropin P1, we performed absolute quantification for TPs II, III, IV, V, VI, and X and found the highest concentrations for TP III. Up to 8.8% of spiked cecropin P1 is converted to TP III during incubations with wastewater extract. For TP II, the conversion ranges from 3.7–5.7%, and for TP V and VI, conversions range between 1.5 and 4.9 and 2.1 and 2.9%, respectively. […]

**Q.** Which “spiked AMP removed by sorption” value [1] does the source give for “cecropin P1 (SWLSKTAKKLENSAKKRISEGIAIAIQGGPR; UniProt P14661 14-44, looked up) [AMP from the parasitic nematode Ascaris suum; linear peptide of canonical amino acids]” here?
**A.** The value was “up to 70%”.

**Q.** And the “biotransformation extent (eq 1, from concentrations in active and autoclaved extracts)” value [2]?
**A.** The value was over 0.5.

**Q.** And the “removal by biotransformation in active wastewater extracts (in words)” value [2]?
**A.** The value was “rapidly removed to nonquantifiable concentrations”.

**Q.** What about the “concentration after 30 min of incubation in active extracts” value ([2]; pool I influent extracts from all tested WWTPs, 20 °C, HPLC-HRMS) of the same substance?
**A.** Its value is “below the LOQ”.

**Q.** What about the “detectable removal between first sampling time point and 30 min in active extracts” value ([2]; pool I influent extracts, WWTPs A-D, all AMPs spiked together (150 μL of 10 μg/mL into 1.35 mL extract), 20 °C, 300 rpm, first point 2 min, then 30 min, HPLC-HRMS, triplicate incubations, maximum over WWTPs, limited by LOQ) of the same substance?
**A.** Its value is “up to 85%”.

**Q.** What about the “share of spiked AMP concentration that could be transformed into the selected TPs, considering the maximum sorption potential of each TP” value [3] of the same substance?
**A.** Its value is “up to 31.6%”.

**Q.** And the “sum of quantified TPs as share of the initially spiked AMP concentration” value [3]?
**A.** The value was 22.8%.
